According to article PMC5025763, “Bach2–Batf interactions control Th2-type immune response by regulating the IL-4 amplification loop” (Nature Communications, 2016):

Molecular target: T1, Flag-tagged Bach2 protein (mouse, UniProt P97303 1-839)
T1 construct: Bach2, mouse (murine Bach2 cDNA is named in the methods of the luciferase assay); The species is stated only for the cDNA cloned into pCMV-Myc; also called WT Bach2 protein; BTB and CNC homology 1, basic leucine zipper transcription factor 2; source: cell-free protein synthesis
T1 sequence (P97303 whole entry): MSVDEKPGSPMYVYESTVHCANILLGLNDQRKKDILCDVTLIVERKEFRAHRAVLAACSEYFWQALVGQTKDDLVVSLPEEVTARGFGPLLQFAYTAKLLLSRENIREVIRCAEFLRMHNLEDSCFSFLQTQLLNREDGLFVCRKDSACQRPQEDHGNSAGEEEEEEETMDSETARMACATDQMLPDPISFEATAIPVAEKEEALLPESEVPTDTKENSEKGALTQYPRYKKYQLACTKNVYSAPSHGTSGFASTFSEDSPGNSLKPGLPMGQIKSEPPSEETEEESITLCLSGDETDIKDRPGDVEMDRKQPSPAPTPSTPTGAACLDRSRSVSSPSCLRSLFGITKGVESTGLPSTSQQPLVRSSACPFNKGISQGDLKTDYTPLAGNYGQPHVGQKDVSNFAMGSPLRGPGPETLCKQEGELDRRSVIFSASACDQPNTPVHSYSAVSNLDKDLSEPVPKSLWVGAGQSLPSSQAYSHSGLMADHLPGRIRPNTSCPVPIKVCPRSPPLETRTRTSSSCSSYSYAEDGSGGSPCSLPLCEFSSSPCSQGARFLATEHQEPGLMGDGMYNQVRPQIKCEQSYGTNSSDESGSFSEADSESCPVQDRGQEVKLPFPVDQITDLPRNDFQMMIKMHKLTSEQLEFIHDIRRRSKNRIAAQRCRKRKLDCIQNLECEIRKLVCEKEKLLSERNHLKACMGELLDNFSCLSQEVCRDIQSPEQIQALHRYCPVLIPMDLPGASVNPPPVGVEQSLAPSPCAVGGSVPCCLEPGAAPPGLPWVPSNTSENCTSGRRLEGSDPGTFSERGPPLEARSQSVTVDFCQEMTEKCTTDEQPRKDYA
Assay: AlphaScreen or HTRF; Flag-tagged Bach2 mixed with biotinylated transcription factors, 26 °C for 1 h; then protein A-conjugated acceptor beads, streptavidin-coated donor beads and anti-Flag M2 antibody, 26 °C for 1 h; proteins from cell-free synthesis; intensities relative to DHFR
Settings: partners not purified

B1: MafK (natural protein)
chain: not shown
notes: MafK (small Maf protein); Named only in the discussion as measured in the authors' AlphaScreen system
  fold binding strength against the Batf–Bach2 interaction: ~20 fold
